The results in this text go back to patent US20230242646A1 (JJP BIOLOGICS SP Z O O, published 2023).

For orientation: EC50 (read off the curve) means the concentration needed to bring the measured effect to its halfway point. As usually defined, the EC50 is the concentration giving half of the maximal effect.

Assay [1] addresses T1, chimeric human/cynomolgus monkey CD89-III on HEK293F cells (human/cynomolgus chimera, UniProt P24071 22-287).
T1 construct: also called dGly72 - Gly96 human EC1-CD89; III (72-96)
T1 chain: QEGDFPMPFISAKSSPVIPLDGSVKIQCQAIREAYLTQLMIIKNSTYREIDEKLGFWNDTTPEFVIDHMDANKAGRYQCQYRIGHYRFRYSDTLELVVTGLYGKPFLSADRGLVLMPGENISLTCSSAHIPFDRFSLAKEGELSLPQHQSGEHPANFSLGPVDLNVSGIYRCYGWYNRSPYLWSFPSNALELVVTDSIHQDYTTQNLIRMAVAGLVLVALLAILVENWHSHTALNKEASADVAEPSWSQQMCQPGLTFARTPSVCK
Briefly: FACS, transiently transfected HEK293F. On the technique in general: In flow cytometry, cells or beads pass a laser one at a time.
Method: (§1) To this end, transient transfected HEK293F cells were put at 10 × 10⁶ cells/mL in ice-chilled phosphate-buffered saline containing 0.1% BSA (Sigma)/0.05% NaN₃ (PBS/BSA/NaN₃) supplemented with 50 µg/mL human IgGs (blocking FcY receptors; Sigma) for 10 minutes at 4° C. Then, 10 µL/tube (i.e., 0.1 × 10⁶ cells) of these cells were incubated with or without 100 µL purified mouse anti-human CD89 antibody at 10 µg/mL (in PBS/BSA/NaN₃) for 30 minutes at 4° C. […] After extensive washing in PBS/BSA/NaN₃, cells were subsequently incubated with 1:200 diluted PE-conjugated goat anti-mouse IgG Fcy-specific antibodies (Jackson ImmunoResearch) for 30 minutes at 4° C. After extensive washing in PBS/BSA/NaN₃, cells were fixed in 2% formaldehyde in PBS/BSA/NaN₃ for 30 minutes at 4° C.

The target of assay [2] is T2, chimeric human/cynomolgus monkey CD89-hotspots on HEK293F cells (human/cynomolgus chimera, UniProt P24071 22-287).
T2 construct: also called dThr58, Gln59; dArg73, Arg74, Lys76
T2 chain: T1 chain with T37I, Q38W, D51G, D59E, T61D, H85L, Y86S
Briefly: FACS, transiently transfected HEK293F.
Method: as §1

For assay [3], the target named is T3, membrane-bound full-length human CD89 on HEK293F cells (human, UniProt P24071 22-287).
T3 construct: 2 or transient transfectants; also called membrane human CD89; human FcaRI
Briefly: FACS HEK293F-huCD89, 10 ug/mL; competitor PE-MIP8a.
Method: (§2) Then, 10 µL/tube (i.e., 0.1 × 10⁶ cells) of these cells were incubated with or without 100 µL purified mouse anti-human CD89 antibody at 10 µg/mL (in PBS/BSA/NaN₃) for 30 minutes at 4° C. […] After extensive washing in PBS/BSA/NaN₃, cells were fixed in 2% formaldehyde in PBS/BSA/NaN₃ for 30 minutes at 4° C.

In assay [4] the target is T4, recombinant C-terminal polyhistidine-tagged human (extracellular) CD89 (Sino Biological) (human, UniProt P24071 22-227).
T4 construct: extracellular domain; bought protein; also called rhuCD89; soluble monomeric rhuCD89
Briefly: ELISA, antibody before serum IgA on coated rhuCD89; IgA detected. For orientation: In an ELISA, binding on a coated surface is turned into a signal by an enzyme label.
Method: After extensive washing with PBS/0.05% Tween 20, plates were blocked with PBS/0.05% Tween 20/1% BSA (Roche) for 1 hour at RT. Subsequently, plates were incubated with 25 µL titrated (in block buffer) purified mouse anti-human CD89 antibody/well for 30 minutes at RT. […] After extensive washing in PBS/0.05% Tween 20, 1:10,000 diluted HRP-conjugated streptavidin (Jackson ImmunoResearch) was added, and incubated for 1 hour at RT, followed by a ready-to-use solution of TMB substrate (Invitrogen) for colorimetric detection.

In assay [5] the target is T4, recombinant C-terminal …. Briefly: ELISA on coated rhuCD89.
Method: After extensive washing with PBS/0.05% Tween 20, plates were blocked with PBS/0.05% Tween 20/1% BSA (Roche) for 1 hour at RT. Subsequently, plates were incubated with 50 µL titrated (in block buffer) purified mouse anti-human CD89 antibody/well for 1 hour at RT. […] After extensive washing in PBS/0.05% Tween 20, binding of antibodies on rhuCD89 was determined with 1:5,000 diluted horseradish peroxidase (HRP)-conjugated goat anti-mouse IgG Fcy-specific antibodies (Jackson ImmunoResearch) for 1 hour at RT, followed by a ready-to-use solution of TMB substrate (Invitrogen) for colorimetric detection.
For assay [6], the target named is T3, membrane-bound full-length human CD89 …. Briefly: FACS HEK293F-huCD89, 10 ug/mL; competitor PE-A59.
Method: as §2
Assay [7] has the same target. Briefly: FACS HEK293F-huCD89, 10 ug/mL; competitor PE-A3.
Method: as §2
For assay [8] the target is unchanged. Briefly: FACS HEK293F-huCD89.
Method: After extensive washing in PBS/BSA/NaN₃, cells were subsequently incubated with 1:200 diluted PE-conjugated goat anti-human IgG Fcy-specific antibodies (Jackson ImmunoResearch) for 30 minutes at 4° C. After extensive washing in PBS/BSA/NaN₃, cells were fixed in 2% formaldehyde in PBS/BSA/NaN₃ for 30 minutes at 4° C.
Assay [9] addresses T5, chimeric human/cynomolgus monkey CD89-II on HEK293F cells (human/cynomolgus chimera, UniProt P24071 22-287).
T5 construct: also called dIle47 - Ile71 human EC1-CD89; II (47-71)
T5 chain: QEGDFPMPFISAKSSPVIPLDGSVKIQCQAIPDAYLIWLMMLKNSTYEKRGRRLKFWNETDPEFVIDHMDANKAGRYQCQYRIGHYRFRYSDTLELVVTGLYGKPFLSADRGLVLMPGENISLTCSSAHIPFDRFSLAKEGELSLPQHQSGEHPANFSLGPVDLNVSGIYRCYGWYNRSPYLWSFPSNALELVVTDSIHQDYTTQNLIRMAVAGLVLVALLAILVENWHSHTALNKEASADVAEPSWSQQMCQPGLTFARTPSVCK
Briefly: FACS, 10 µg/mL, transiently transfected HEK293F.

Assay [10] addresses T6, chimeric human/cynomolgus monkey CD89-IV on HEK293F cells (human/cynomolgus chimera, UniProt P24071 22-287).
T6 construct: also called dArg97 - Gly121 human EC1-CD89
T6 chain: T1 chain with D51G, E52R, K53R, G55K, D59E, T61D, Q78R, Q80R, H85L, Y86S
Briefly: FACS, 10 µg/mL, transiently transfected HEK293F.

Assay [11] has as its target T7, chimeric human/cynomolgus monkey CD89-I on HEK293F cells (human/cynomolgus chimera, UniProt P24071 22-287).
T7 construct: also called dGln22 - Lys46 human EC1-CD89; I (22-46)
T7 chain: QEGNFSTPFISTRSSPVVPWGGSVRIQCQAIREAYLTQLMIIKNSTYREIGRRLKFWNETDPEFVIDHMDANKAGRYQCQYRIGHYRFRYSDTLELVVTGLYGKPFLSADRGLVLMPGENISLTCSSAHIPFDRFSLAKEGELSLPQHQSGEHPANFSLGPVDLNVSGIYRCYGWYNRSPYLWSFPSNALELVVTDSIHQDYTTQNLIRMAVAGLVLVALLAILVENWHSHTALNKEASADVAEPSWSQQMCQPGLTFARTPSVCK
Briefly: FACS, 10 µg/mL, transiently transfected HEK293F.

In assay [12] the target is T8, membrane full-length cynomolgus monkey CD89 on HEK293F cells (cynomolgus monkey).
T8 construct: also called cynoCD89; cynomolgus EC1-CD89
T8 chain: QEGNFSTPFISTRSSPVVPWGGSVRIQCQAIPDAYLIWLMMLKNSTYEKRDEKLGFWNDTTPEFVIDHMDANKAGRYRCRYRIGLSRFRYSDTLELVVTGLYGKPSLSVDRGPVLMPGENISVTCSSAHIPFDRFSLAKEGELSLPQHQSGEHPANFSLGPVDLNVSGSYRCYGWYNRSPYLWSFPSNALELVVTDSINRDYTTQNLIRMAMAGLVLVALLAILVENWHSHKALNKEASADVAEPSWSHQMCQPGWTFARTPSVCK
Briefly: FACS, transiently transfected HEK293F.
Method: To this end, transient transfected HEK293F cells were put at 10 x 10⁶ cells/mL in ice-chilled phosphate-buffered saline containing 0.1% BSA (Sigma)/0.05% NaN₃ (PBS/BSA/NaN₃) supplemented with 50 µg/mL human IgGs (blocking FcY receptors; Sigma) for 10 minutes at 4° C. Then, 10 µL/tube (i.e., 0.1 × 10⁶ cells) of these cells were incubated with or without 100 µL purified mouse anti-human CD89 antibody at 10 µg/mL (in PBS/BSA/NaN₃) for 30 minutes at 4° C. […] After extensive washing in PBS/BSA/NaN₃, cells were subsequently incubated with 1:200 diluted PE-conjugated goat anti-mouse IgG Fcy-specific antibodies (Jackson ImmunoResearch) for 30 minutes at 4° C. After extensive washing in PBS/BSA/NaN₃, cells were fixed in 2% formaldehyde in PBS/BSA/NaN₃ for 30 minutes at 4° C.

Assay [13] deals with T9, chimeric bovine EC1-Fcgamma2R/human EC2-CD89 on HEK293F cells (bovine/human chimera).
T9 chain: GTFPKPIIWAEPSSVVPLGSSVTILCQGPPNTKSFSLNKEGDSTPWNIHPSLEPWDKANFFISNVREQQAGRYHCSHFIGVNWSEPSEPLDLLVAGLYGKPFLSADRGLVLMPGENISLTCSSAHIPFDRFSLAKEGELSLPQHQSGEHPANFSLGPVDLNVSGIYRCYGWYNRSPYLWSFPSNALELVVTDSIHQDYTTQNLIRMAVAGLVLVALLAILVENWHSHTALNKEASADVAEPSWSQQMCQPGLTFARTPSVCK
Briefly: FACS, transiently transfected HEK293F.
Method: To this end, transient transfected HEK293F cells were put at 10 × 10⁶ cells/mL in ice-chilled phosphate-buffered saline containing 0.1% BSA (Sigma)/0.05% NaN₃ (PBS/BSA/NaN₃) supplemented with 50 µg/mL human IgGs (blocking Fcy receptors; Sigma) for 10 minutes at 4° C. Then, 10 µL/tube (i.e., 0.1 × 10⁶ cells) of these cells were incubated with or without 100 µL purified mouse anti-human CD89 antibody at 10 µg/mL (in PBS/BSA/NaN₃) for 30 minutes at 4° C. […] After extensive washing in PBS/BSA/NaN₃, cells were subsequently incubated with 1:200 diluted PE-conjugated goat anti-mouse IgG Fcy-specific antibodies (Jackson ImmunoResearch) for 30 minutes at 4° C. After extensive washing in PBS/BSA/NaN₃, cells were fixed in 2% formaldehyde in PBS/BSA/NaN₃ for 30 minutes at 4° C.

The target in assay [14] is T4, recombinant C-terminal …. Briefly: ELISA, coated rhuCD89.
Assay [15] addresses T3, membrane-bound full-length human CD89 …. Briefly: FACS, antibody before serum IgA on HEK293F-huCD89; IgA detected.
For assay [16] the target is unchanged. Briefly: FACS, antibody before secretory IgA on HEK293F-huCD89; IgA detected.
Method: Then, 10 µL/tube (i.e., 0.1 x 10⁶ cells) of these cells were incubated with or without 50 µL titrated (in PBS/BSA/NaN₃) purified mouse anti-human CD89 antibody/tube for 30 minutes at 4° C. […] After extensive washing in PBS/BSA/NaN₃, 1:200 diluted PE-conjugated streptavidin (Jackson ImmunoResearch) was added, and incubated for 30 minutes at 4° C. After extensive washing in PBS/BSA/NaN₃, cells were fixed in 4% formaldehyde in PBS/BSA/NaN₃ for 30 minutes at 4° C.
Assay [17] has the same target. Briefly: FACS on HEK293F-huCD89.
Method: Then, 10 µL/tube (i.e., 0.1 x 10⁶ cells) of these cells were incubated with 100 µL titrated (in PBS/BSA/NaN₃) purified mouse anti-human CD89 antibody/tube for 30 minutes at 4° C. […] After extensive washing in PBS/BSA/NaN₃, cells were subsequently incubated with 1:200 diluted PE-conjugated goat anti-mouse IgG Fcy-specific antibodies (Jackson ImmunoResearch) for 30 minutes at 4° C. After extensive washing in PBS/BSA/NaN₃, cells were fixed in 2% formaldehyde in PBS/BSA/NaN₃ for 30 minutes at 4° C.

Changes are numbered by the printed parent chain.

B1: CD89/IgA blocking mouse anti-human CD89-specific antibody 8F3 (antibody, V domains shown)
VH: EVQLVESGGGLVKPGGSLKLSCAASGFTFSNYGMSWVRQTPDKRLEWVATMHSGGTYTYYPDNVKGRFTISRDNAKNNLYLQMSSLRSEDTAMYYCARETGLYDGLFDFWGQGTTLTVSS
VL: DVQITQSPSYLAASPGETITINCRASKTISKYLAWYQEKPGKTNMLLIYSGSTLQSGVPSRFSGSGSGTDFTLTISSLEPEDLAMYYCQQHDEYPWTFGGGTKLEIK
notes: also called mouse 8F3
In the case of B1, the binding result in [1] is reported as “no binding (tested: 10 µg/mL)”; in assay [2], “no binding (tested: 10 µg/mL)”; in assay [9], “binds”; in assay [10], “binds”; in assay [11], “binds”; in assay [12] it was “no binding (tested: 10 µg/mL)”. In addition, the binding result in assay [13] is listed as “no binding (tested: 10 µg/mL)”. The “% blocking of PE-MIP8a binding” value in assay [3] is less than 25%. In addition, the “IC50 (read off the curve)” value in assay [4] was approximately 0.09 mg/L; in [15], approximately 0.8 mg/L; in assay [16], approximately 0.8 mg/L. The “EC50 (read off the curve)” value in assay [5] was approximately 0.03 mg/L; in [17] it was approximately 0.4 mg/L. Moreover, the “% blocking of PE-A59 binding” value in [6] is less than 25%. In addition, in assay [7], the “% blocking of PE-A3 binding” value was less than 25%. For the same molecule, the figures for the EC50 in assay [8] and in [14] were 0.714 mg/L and 0.052 mg/L, respectively.
